Test results from publication PMC6449940, “The Cdc42 effectors Gic1 and Gic2 regulate polarized post-Golgi secretion” (Cell & Bioscience, 2019).

Target: T1, His6-Cdc42 (S. cerevisiae, UniProt P19073 1-191)
T1 construct: Cdc42, small GTPase, S. cerevisiae; also called Hisx6-Cdc42; Cdc42 wild type; source: bacteria, purified (Hisx6 fusion)
Experiment: pull-down; GST-Sec3N (a.a.71–241) on glutathione Sepharose (20 μg), His6-Cdc42 or mutant (10 μg) in the presence of GTPγS; bound protein detected with anti-Hisx6 antibody
Conditions: both partners purified

T1 sequence (P19073 whole entry, the tested form may be a part): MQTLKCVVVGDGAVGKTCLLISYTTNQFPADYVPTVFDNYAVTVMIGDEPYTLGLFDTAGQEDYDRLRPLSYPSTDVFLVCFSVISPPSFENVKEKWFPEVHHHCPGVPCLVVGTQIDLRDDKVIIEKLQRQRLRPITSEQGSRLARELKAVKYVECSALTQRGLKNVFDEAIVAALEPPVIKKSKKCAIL

B1: GST-Sec3N (a.a.71–241) (domain or fragment, S. cerevisiae (budding yeast), UniProt P33332 71-241, looked up)
chain: SSQTSNFLAEQYERDRKAIINCCFSRPDHKTGEPPNNYITHVRIIEDSKFPSSRPPPDSKLENKKKRLLILSAKPNNAKLIQIHKARENSDGSFQIGRTWQLTELVRVEKDLEISEGFILTMSKKYYWETNSAKERTVFIKSLITLYIQTFEGHVPELVNWDLSLFYLDER
notes: Sec3, exocyst subunit, budding yeast, residues 71-241 (N-terminus, PH domain-like region); also called Amino-terminus of Sec3 (a.a.71–241); source: GST fusion protein, purified and conjugated to glutathione Sepharose
binding result: binds
